Results: patent publication US6468567B1, “Malt beverage having stabilized flavor and methods of production thereof” (Cerveceria Polar, C.A., priority 1997, dated 2002)

Legend:
[1] = Substrate specificity assays of the purified reductase enzymes; type: biochemical; settings: FIG. 10
Experimental: The activities of the isolated and purified oxoaldehyde reductase enzymes were determined in a mixture containing 9 mM methylglyoxal, 0.1 mM NADPH, 25 mM potassium phosphate buffer (pH 7.0), and the fraction enzyme (8 μg approximately) in a total volume of 0.5 ml. The reaction was monitored at 340 nm. All assays were performed at 25° C. One unit of the enzyme was defined as the amount of enzyme that the catalyzes the oxidation of 1 μmol of NADPH per minute at 25° C.
Various carbonyl compounds were assayed as substrates for the isolated and purified reductase enzymes.

[2] = Effect of the reductases on the LC18 peak in fresh beer (HPLC); type: biochemical; settings: 50 units/ml enzyme, 25° C., 30 minutes, FIG. 11
Experimental: Analysis of the chemical indices LC18 and 5-HMF was performed by liquid chromatography, using a Waters HPLC system which consisted of a 600 pump, Wisp 717 autosampler, Millennium 2010 Chromatography Manager v 2.1. Separation was carried out in an Aminex HPX-87H column 300×7.8 mm, 9 μm held at 55° C. Elution was monitored with a Waters 991 Photodiode Array Detector (200 nm-300 nm) and the quantitation of 5-HMF and LC18 peak was carried out at 283 nm. For analysis, 50 μl of degassed beer was injected in duplicate samples and eluted with 0.05 M H2SO4 over 25 min at a flow rate of 1.0 ml/min. Quantitation of 5-HMF was performed using an external calibration curve of the respective pure compounds (Sigma; Saint Louis, Mo.).
In order to determine the effect of both reductases on the intensity of the LC18 peak, a 1 ml mixture of fresh beer, 25 mM potassium phosphate buffer (pH 7.0), 0.1 mM NADPH and the required volume of enzyme to obtain a final concentration in the solution of 50 units/ml of enzyme was incubated at 25° C. for 30 minutes. After the incubation, the treated beer was analyzed on an Aminex HPX-87H column connected to a Waters HPLC System under the conditions described above.

B1: Reductase 1: NADPH-dependent oxidoreductase purified from brewer's yeast; first 30 residues show 100% homology to Old Yellow Enzyme isozyme OYE2 (protein, UniProt Q03558 2-400, looked up)
NADPH dehydrogenase 2: PFVKDFKPQALGDTNLFKPIKIGNNELLHRAVIPPLTRMRAQHPGNIPNRDWAVEYYAQRAQRPGTLIITEGTFPSPQSGGYDNAPGIWSEEQIKEWTKIFKAIHENKSFAWVQLWVLGWAAFPDTLARDGLRYDSASDNVYMNAEQEEKAKKANNPQHSITKDEIKQYVKEYVQAAKNSIAAGADGVEIHSANGYLLNQFLDPHSNNRTDEYGGSIENRARFTLEVVDAVVDAIGPEKVGLRLSPYGVFNSMSGGAETGIVAQYAYVLGELERRAKAGKRLAFVHLVEPRVTNPFLTEGEGEYNGGSNKFAYSIWKGPIIRAGNFALHPEVVREEVKDPRTLIGYGRFFISNPDLVDRLEKGLPLNKYDRDTFYKMSAEGYIDYPTYEEALKLGWDKN
activity on pyruvate [1]: neither enzyme showed any appreciable activity | effect on the assayed aldoses (glucose, galactose and xylose) [1]: little or no effect | metyrapone as substrate [1]: acceptable substrate | activity on compounds with a single keto or aldo group such as acetaldehyde and pyridine-3-aldehyde ([1]; comparison of Reductase 1 with Reductase 2): higher activity than Reductase 2 | activity on 2-oxoaldehydes such as methylglyoxal and 3-deoxyglucosone ([1]; substrates methylglyoxal, 3-deoxyglucosone): acted on | change in the area of the LC18 peak ([2]; 0.1 mM NADPH, relative to untreated control beer): significant decrease | decrease in the LC18 peak compared with Reductase 2 [2]: larger decrease
